For assay [1], the target named is T1, extracellular domain (ECD) of human αKlotho, amino acids E34-S981 with C-terminal 6-His tag (R&D Systems … (human, UniProt Q9UEF7 34-981)).
T1 construct: range 34-981; also called αKlotho (aa34-981); target antigen
T1 sequence: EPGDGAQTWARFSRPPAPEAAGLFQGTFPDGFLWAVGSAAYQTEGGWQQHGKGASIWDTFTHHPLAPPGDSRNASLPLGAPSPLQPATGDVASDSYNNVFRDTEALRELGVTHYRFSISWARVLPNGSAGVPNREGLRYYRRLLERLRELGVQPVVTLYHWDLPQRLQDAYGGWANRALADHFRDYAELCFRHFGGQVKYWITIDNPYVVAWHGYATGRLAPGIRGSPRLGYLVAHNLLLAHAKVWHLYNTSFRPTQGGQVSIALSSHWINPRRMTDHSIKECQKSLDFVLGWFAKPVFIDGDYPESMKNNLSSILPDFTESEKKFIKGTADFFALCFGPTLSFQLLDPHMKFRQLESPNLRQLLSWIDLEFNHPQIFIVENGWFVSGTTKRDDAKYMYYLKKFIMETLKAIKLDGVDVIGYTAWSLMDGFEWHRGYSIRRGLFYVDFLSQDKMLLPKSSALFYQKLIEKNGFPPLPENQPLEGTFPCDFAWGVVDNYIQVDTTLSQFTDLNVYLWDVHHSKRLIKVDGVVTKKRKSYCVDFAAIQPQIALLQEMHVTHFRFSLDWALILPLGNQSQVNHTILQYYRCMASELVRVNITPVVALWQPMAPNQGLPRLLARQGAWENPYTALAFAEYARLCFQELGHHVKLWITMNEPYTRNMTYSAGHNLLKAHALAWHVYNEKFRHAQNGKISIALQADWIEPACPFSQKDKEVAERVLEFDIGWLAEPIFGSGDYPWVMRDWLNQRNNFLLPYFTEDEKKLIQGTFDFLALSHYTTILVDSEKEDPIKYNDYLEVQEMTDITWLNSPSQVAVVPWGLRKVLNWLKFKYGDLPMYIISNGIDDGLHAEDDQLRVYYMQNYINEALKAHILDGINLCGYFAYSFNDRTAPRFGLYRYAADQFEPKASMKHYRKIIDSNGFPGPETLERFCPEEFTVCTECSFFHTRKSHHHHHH
Kind of assay: SPR, Fab captured by anti-H+L antibody, αKlotho injected. How it is done:
Affinity estimates for each of the antibodies were determined by surface plasmon resonance (SPR). Fabs were immobilized using an anti-H+L antibody and serial dilutions of αKlotho were injected.
A general note: SPR reads the build-up and loss of mass on a sensor chip optically.

The target in another assay is T2, mouse αKlotho (mouse, UniProt O35082 35-982).
T2 construct: also called Mu aKL
T2 sequence (looked up): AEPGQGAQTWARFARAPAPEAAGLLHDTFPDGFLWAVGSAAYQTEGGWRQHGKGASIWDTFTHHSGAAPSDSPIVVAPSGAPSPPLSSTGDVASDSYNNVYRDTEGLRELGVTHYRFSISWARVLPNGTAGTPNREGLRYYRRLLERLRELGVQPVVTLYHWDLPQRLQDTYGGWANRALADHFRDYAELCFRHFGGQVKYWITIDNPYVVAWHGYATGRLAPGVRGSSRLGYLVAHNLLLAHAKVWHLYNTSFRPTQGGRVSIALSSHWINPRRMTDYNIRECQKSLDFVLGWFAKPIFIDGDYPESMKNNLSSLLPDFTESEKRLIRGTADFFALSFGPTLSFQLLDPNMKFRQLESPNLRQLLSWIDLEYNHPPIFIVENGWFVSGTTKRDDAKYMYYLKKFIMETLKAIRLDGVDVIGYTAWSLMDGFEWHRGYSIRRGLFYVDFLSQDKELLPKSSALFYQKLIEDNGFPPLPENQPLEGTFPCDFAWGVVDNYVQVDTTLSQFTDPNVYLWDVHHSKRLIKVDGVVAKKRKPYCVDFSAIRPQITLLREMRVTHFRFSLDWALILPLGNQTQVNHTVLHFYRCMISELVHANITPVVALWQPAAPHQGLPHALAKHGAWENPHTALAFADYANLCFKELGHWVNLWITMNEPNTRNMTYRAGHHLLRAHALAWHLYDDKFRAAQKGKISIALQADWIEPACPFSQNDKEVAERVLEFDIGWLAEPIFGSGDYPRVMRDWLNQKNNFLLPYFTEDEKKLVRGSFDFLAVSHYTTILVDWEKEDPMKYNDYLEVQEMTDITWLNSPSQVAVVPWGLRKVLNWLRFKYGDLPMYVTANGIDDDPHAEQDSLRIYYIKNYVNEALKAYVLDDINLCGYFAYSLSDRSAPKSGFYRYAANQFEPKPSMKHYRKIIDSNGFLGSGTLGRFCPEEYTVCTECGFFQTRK
Kind of assay: SPR (ProteOn XPR36), Fab captured by anti-IgG(H+L), mouse αKlotho injected in serial dilutions, Langmuir fit [continued) C.]. The protocol: Estimated affinities against human and mouse antigen for select αKlotho Fabs were obtained by surface plasmon resonance on a ProteOn XPR36 (FIG. 17). Fabs were captured using an anti-IgG(H+L) antibody and serial dilutions of αKlotho were injected. Binding curves were fitted to the Langmuir model. (A) Determined Kon, Koff and KD values. (B) and (C) Binding curves for human and mouse antigen respectively.

Drawing on patent US20190041402A1 (GOVERNING COUNCIL OF THE UNIVERSITY OF TORONTO, published 2019), this text covers Kd, koff and kon for one molecule.

B1: sb106 Fab (Fab, V domains shown)
VH: EVQLVESGGGLVQPGGSLRLSCAASGFNISYYSIHWVRQAPGKGLEWVAYISPSYGYTSYADSVKGRFTISADTSKNTAYLQMNSLRAEDTAVYYCARYYVYASHGWAGYGMDYWGQGTLVTVSS
VL: DIQMTQSPSSLSASVGDRVTITCRASQSVSSAVAWYQQKPGKAPKLLIYSASSLYSGVPSRFSGSRSGTDFTLTISSLQPEDFATYYCQQAGYSPITFGQGTKVEIKR
notes: also called Fsb106; clone 48
The term Kd denotes the concentration at which binding is half-saturated. Higher therefore signals weaker binding. One may read the koff as the rate constant with which the complex falls apart. Low values mean slow dissociation, high ones fast dissociation. One may read the kon as the rate constant with which the complex forms. A lower kon goes with slow association. B1 registered a Kd in assay [1] of 1.9 nM. For the same molecule, in the assay with mouse αKlotho, the affinity, expressed as Kd, was 0.784 nM; the koff came to 0.000159 s⁻¹; the kon came to 202000 M⁻¹ s⁻¹.
